Laboratory results reported in patent publication US20240117073A1, “METHODS OF TREATING NEOPLASTIC ASTROCYTOMA” (Ludwig Institute for Cancer Research Ltd., priority 2009, published 2024).
Several values for one entry are separate records, joined by “and”; a condition that tells them apart may be missing. Equal values may be shown once. Entries after “also recorded” stand apart in the source; their conditions may differ. Marks after values point to notes of the source that are not given here.

Tests used:
wtEGFR on A431 cells = target: T1, wtEGFR on A431 cells (Homo sapiens, UniProt P00533); test: Scatchard analysis on A431 cells; type: binding
T1 construct: A431 cells are human squamous carcinoma cells and express high levels of wtEGFR; host or cells: A431 human squamous (epidermoid) carcinoma cells
Experimental: All binding assays were performed in 1% HSA/PBS on 1-2×10^6 live U87MG.Δ2-7 or A431 cells for 90 min at 4° C. with gentle rotation. A set concentration of 10 ng/ml ^125I-labeled antibody was used in the presence of increasing concentrations of the appropriate unlabeled antibody. Non-specific binding was determined in the presence of 10,000-fold excess of unlabeled antibody. […] After the incubation was completed, cells were washed and counted for bound ^125I-labeled antibody using a COBRA II gamma counter (Packard Instrument Company, Meriden, CT, USA).

U87MG.de2-7 cells = test: ADCC assay; type: cell-based, human; conditions: E:T ratio 50:1
Experimental: PBMCs were isolated from healthy volunteer donor blood. Heparinized whole blood was fractionated by density centrifugation on Ficoll-Hypaque (ICN Biomedical Inc., Ohio, USA). PBMC fractions was collected and washed three times with RPMI+1640 supplemented with 100 U/ml penicillin and 100 μg/ml streptomycin, 2 mM L-glutamine, containing 5% heat-inactivated FCS.
CDC and ADCC assays were performed by a modification of a previously published method (Nelson, D. L. et al. (1991) In: J. E. Colignan, A. M. Kruisbeek, D. D. Margulies, E. M. Shevach, and W. Strober (eds.), Current Protocols in Immunology, pp. 7.27.1. New York: Greene Publishing Wiley Interscience). Briefly, 5×10^6 target U87MG.de2-7 and A431cells were labeled with 50 μCi^51Cr (Geneworks, Adelaide, Australia) per 1×10^6 cells and incubated for 2 hr at 37° C. The cells were then washed three time with PBS (0.05M, pH 7.4) and a fourth wash with culture medium. […]
In the first assay, labelled target cells were plated with the effector cells in 96-well “U” bottom microplates (NUNC, Roskilde, Denmark) at effector/target (E:T) cell ratios of 50:1. […] In both assays, micotitre plates were incubated at 37° C. for 4 hours, then 50 μl supernatant was harvested from each well and released ^51Cr was determined by gamma counting (Cobra II automated Gamma Counter, Canberra Packard, Melbourne, Australia). […]

parental U87MG cells = test: binding of iodinated antibody to cells; set-up: species or system human
[1] = tested on: Ba/F3 cells expressing the wtEGFR; test: EGF-induced proliferation (MTT assay); type: cell-based; conditions: antibody 10 μg/ml
Experimental: Cells growing in log phase were harvested and washed twice with PBS to remove residual IL-3. […] Proliferation was determined using the MTT assay (van de Loosdrecht et al. (1994) J. Immunol. Methods. 174, 311-320).

deglycosylated sEGFR = target: T2, deglycosylated sEGFR (Homo sapiens, UniProt P00533); test: immunoblot of PNGase F treated sEGFR; type: binding
T2 construct: sEGFR is the recombinant extracellular domain (amino acids 1-621) of the wild-type EGFR; host or cells: CHO cells
Experimental: To determine if carbohydrate structures are directly involved in the mAb806 epitope, the recombinant sEGFR expressed in CHO cells was treated with PNGase F to remove N-linked glycosylation.

U87MG cells = test: FACS binding to cell lines; type: cell-based, human
Experimental: Briefly, cells were labelled with the relevant antibody (10 μg/ml) followed by fluorescein-conjugated goat anti-mouse IgG (1:100 dilution; Calbiochem San Diego, CA, USA; Becton-Dickinson PharMingen, San Diego, CA, US) as described previously (Nishikawa et al., 1994). FACS data was obtained on a Coulter Epics Elite ESP by observing a minimum of 5,000 events and analyzed using EXPO (version 2) for Windows.
Stained cells were analyzed with a FACS Calibur™ using Cell Quest™ software (Becton-Dickinson PharMingen). […] Mouse IgG2a or IgG2b was used as an isotype control.
Cells (1 3 10 6) were incubated with 5 μg/ml of the appropriate antibody or an isotype-matched negative control in PBS containing 1% HSA for 30 min at 4° C. After three washes with PBS/1% HSA, cells were incubated an additional 30 min at 4° C. with FTTC-coupled goat anti-mouse antibody (1:100 dilution; Calbiochem, San Diego, CA). After three subsequent washes, cells were analyzed on an Epics Elite ESP (Beckman Coulter, Hialeah, FL) by observing a minimum of 20,000 events and analyzed using EXPO (version 2) for Windows.

[2] = target: T3, EGFR from U87MG.wtEGFR and A431 cells (Homo sapiens, UniProt P00533); test: immunoprecipitation and Endo H digestion; type: binding
T3 construct: expressed in transfected cells; host or cells: U87MG.wtEGFR (transfected with wtEGFR) and A431 (endogenous, amplified gene)
Experimental: This possibility was tested by immunoprecipitating the EGFR from different cells lines labelled overnight with ^35S methionine/cysteine and then subjecting the resultant precipitates to Endoglycosidase H (Endo H) digestion. This enzyme preferentially removes high mannose type carbohydrates (i.e. immature glycosylation) from proteins while leaving complex carbohydrates (i.e. mature glycosylation) intact.

A431 cells = test: FACS binding to cell lines; type: cell-based, human
From the text: FACS data was obtained on a Coulter Epics Elite ESP by observing a minimum of 5,000 events and analyzed using EXPO (version 2) for Windows.
As described previously, A431 cells are human squamous carcinoma cells and express high levels of wtEGFR.
The estimates of antibody concentration determined for each sample by the OD Δ280 nm were utilised for FACS analyses with the adenocarcinoma cell line A431 cells (containing EGFR gene amplification). […] Control for secondary antibody alone was also included [Goat anti hu-IgG (Fc specific) FITC conjugated].

[3] = tested on: U87MG.wtEGFR brain xenografts; test: systemic treatment of intracranial xenografts; set-up: species or system nude mice; conditions: mouse, in vivo
Experimental: U87MG.ΔEGFR cells (1×10^5) or 5×10^5 LN-Z308.ΔEGFR, A1207.ΔEGFR, U87MG, U87MG.DK, and U87MG.wtEGFR cells in 5 μl of PBS were implanted into the right corpus stratum of nude mice brains as described previously (Mishima et al. (2000) A peptide derived from the non-receptor binding region of urokinase plasminogen activator inhibits glioblastoma growth and angiogenesis in vivo in combination with cisplatin. Proc. Natl. Acad. Sci. U.S.A. 97, 8484-8489).

A431 xenografts [4] = test: combination therapy with AG1478, preventative model; type: in vivo, mice; conditions: 0.1 mg mAb806; 400 μg AG1478
Experimental: AG1478 (4-(3-Chloroanilino)-6,7-dimethoxyquinazoline) is a potent and selective inhibitor of the EGFR kinase versus HER2-neu and platelet-derived growth factor receptor kinase (Calbiochem Cat. No. 658552). […] The results are illustrated in FIG. 12. […] 400 μg AG1478 was administered at 0, 2, 4, 7, 9, and 11 days post xenograft.

[5] = tested on: panel of 12 different malignancies; test: immunohistochemistry of tumor panel; set-up: species or system human
Experimental: Immunohistochemical analysis was performed using […] sections of fresh frozen tissue applied to histology slides and fixed for 10 minutes in cold acetone. Bound primary antibody was detected with biotinylated horse anti-mouse antibody followed by an avidin-biotin-complex reaction. Diaminobenzidine tetra hydrochloride (DAB) was used as chromogen. The extent of the immunohistochemical reactivity in tissues was estimated by light microscopy and graded according to the number of immunoreactive cells in 25% increments as follows: • Focal=less than 5% • +=5-25% • ++=25-50% • +++=50-75% • ++++=>75%
The extent of de2-7 EGFR in other tumor types was examined using a panel of 12 different malignancies. […] This staining was strongly dependent on antibody concentration used and was considered nonspecific background reactivity.

A431 xenografts [6] = test: established xenograft model; type: in vivo, nude mice; conditions: day 13; 1 mg injection
Experimental: Tumor cells (3×10^6) in […] of PBS were inoculated subcutaneously into both flanks of 4-6 week old female nude mice (Animal Research Centre, Western Australia, Australia). […] Treatment was continued for a total of 6 doses, 3 times per week for 2 weeks. In the established model, treatment was started when tumors had reached a mean volume of 65±6.42 mm^3 (U87MG.Δ2-7), 84±9.07 mm^3 (U87MG), 73±7.5 mm^3 (U87MG.wtEGFR) or 201±19.09 mm^3 (A431 tumors). Tumor volume in mm^3 was determined using the formula (length×width^2)/2, where length was the longest axis and width the measurement at right angles to the length (Clark et al. (2000) Therapeutic efficacy of anti-Lewis (y) humanized 3S 193 radioimmunotherapy in a breast cancer model: enhanced activity when combined with Taxol chemotherapy. Clin. Cancer Res. 6, 3621-3628). Data was expressed as mean tumor volume±S.E. for each treatment group. Statistical analysis was performed at given time points using Student's t-test. Animals were euthanized when the xenografts reached an approximate volume of 1.5 cm^3 and the tumors excised for histological examination. This research project was approved by the Animal Ethics Committee of the Austin and Repatriation Medical Centre.
At day 13, when control animals were sacrificed, the mean tumor volume was 1142±120.06 mm^3 for the control group and 451±65.58 mm^3 for the 1 mg injection group (p<0.0001).

[7] = target: T4, biotinylated de2-7 specific peptide (Homo sapiens, UniProt P00533, DELINS30-297G); test: ELISA on de2-7 peptide; type: binding
T4 construct: purchased Auspep, Melbourne, Australia; host or cells: synthetic (Fmoc chemistry)
From the text: In the second assay, the biotinylated de2-7 specific peptide (Biotin-[…] (SEQ ID NO:5)) was bound to ELISA plates precoated with streptavidin (Pierce, Rockford, Illinois). Antibodies were bound and detected as in the first assay.

B1: mAb806: murine monoclonal antibody recognizing de2-7 EGFR and amplified EGFR; VH SEQ ID NO:2, VL SEQ ID NO:4 (antibody, listed as Mus musculus, V domains shown)
VH: MRVLILLWLFTAFPGVLSDVQLQESGPSLVKPSQSLSLTCTVTGYSITSDFAWNWIRQFPGNKLEWMGYISYSGNTRYNPSLKSRISITRDTSKNQFFLQLNSVTIEDTATYYCVTAGRGFPYWGQGTLVTVSA
VL: MVSTAQFLAFLLLWFPGARCDILMTQSPSSMSVSLGDTVSITCHSSQDINSNIGWLQQRPGKSFKGLIYHGTNLDDEVPSRFSGSGSGADYSLTISSLESEDFADYYCVQYAQFPWTFGGGTKLEIKR
wtEGFR on A431 cells
  receptors (binding sites) per cell: 2.4×10^5 receptors per cell and 2.3×10^5 receptors per cell
wtEGFR on A431 cells; average of three experiments
  affinity: 9.5e+07 M⁻¹
U87MG.de2-7 cells
  ADCC: lack of parental murine mAb806 immune effector function
Parental U87MG cells
  binding of iodinated antibody: Neither ^125I-radiolabeled mAb806 or the DH8.3 antibody bound; also recorded: did not bind
[1]
  effect on EGF-induced proliferation: no effect
Deglycosylated sEGFR
  binding to deglycosylated sEGFR: clearly bound the deglycosylated material
U87MG cells
  FACS staining: binding levels similar to the control antibody; also recorded: not with U87MG cells
[2]
  Endo H sensitivity of precipitated EGFR: sensitive to Endo H
A431 cells
  FACS staining: Low, but highly reproducible, binding
[3]
  effect on survival: slightly extended
  median survival: 23 days
A431 xenografts [4]
  tumor volume: significant reduction of tumor volume
[5]; Colonic carcinoma
  positive tumors/tumors tested: 0/10
[5]; Head + neck cancer (sqcc)
  positive tumors/tumors tested: 7/11
[5]; Leiomyosarcoma
  positive tumors/tumors tested: 0/5
[5]; Liposarcoma
  positive tumors/tumors tested: 0/5*
[5]; Lung (sqcc, adeno, neuroend)
  positive tumors/tumors tested: 6/12
[5]; Malignant melanoma metastases
  positive tumors/tumors tested: 0/10
[5]; Mammary gland
  positive tumors/tumors tested: 1/10
  staining grades of positive tumors: (foc)
[5]; Mfh Malignant fibrous histiocytoma
  positive tumors/tumors tested: 0/5*
[5]; Ovary (serous-papillary)
  positive tumors/tumors tested: 0/5
[5]; Seminoma
  positive tumors/tumors tested: 0/10
[5]; Synovial sarcoma
  positive tumors/tumors tested: 0/5*
[5]; Urinary bladder (tcc, sqcc, adeno)
  positive tumors/tumors tested: 3/10*
[5]; head and neck tumors
  tumors with positive staining: 64%
[5]; lung carcinomas
  tumors with positive staining: 50%
[5]; urinary tumors
  tumors with positive staining: 30%
A431 xenografts [6]
  mean tumor volume: 451±65.58 mm^3 and 450±70 mm^3
[7]
  binding to unique de2-7 EGFR peptide: Neither mAb806 nor the 528 antibody bound to the peptide
